This note sets out measurements from US20190315842A1.

Experiment [1] deals with systemic lupus erythematosus autoantigen SSA. As to the kind of experiment: AtheNA Multi-Lyte ANA, Ab at 25 ug/ml.
The target of experiment [2] is histones. As to the kind of experiment: AtheNA Multi-Lyte ANA, Ab at 25 ug/ml.
Experiment [3] has as its target systemic lupus erythematosus autoantigen SSB (UniProt P05455). Put plainly: AtheNA Multi-Lyte ANA, Ab at 25 ug/ml.
The target of experiment [4] is Sm (sphingomyelin). Put plainly: AtheNA Multi-Lyte ANA, Ab at 25 ug/ml.
For experiment [5], the target named is centromere B (CentB) (UniProt P07199). Put plainly: AtheNA Multi-Lyte ANA, Ab at 25 ug/ml.
Sequence of centromere B (CentB) (P07199 2-599): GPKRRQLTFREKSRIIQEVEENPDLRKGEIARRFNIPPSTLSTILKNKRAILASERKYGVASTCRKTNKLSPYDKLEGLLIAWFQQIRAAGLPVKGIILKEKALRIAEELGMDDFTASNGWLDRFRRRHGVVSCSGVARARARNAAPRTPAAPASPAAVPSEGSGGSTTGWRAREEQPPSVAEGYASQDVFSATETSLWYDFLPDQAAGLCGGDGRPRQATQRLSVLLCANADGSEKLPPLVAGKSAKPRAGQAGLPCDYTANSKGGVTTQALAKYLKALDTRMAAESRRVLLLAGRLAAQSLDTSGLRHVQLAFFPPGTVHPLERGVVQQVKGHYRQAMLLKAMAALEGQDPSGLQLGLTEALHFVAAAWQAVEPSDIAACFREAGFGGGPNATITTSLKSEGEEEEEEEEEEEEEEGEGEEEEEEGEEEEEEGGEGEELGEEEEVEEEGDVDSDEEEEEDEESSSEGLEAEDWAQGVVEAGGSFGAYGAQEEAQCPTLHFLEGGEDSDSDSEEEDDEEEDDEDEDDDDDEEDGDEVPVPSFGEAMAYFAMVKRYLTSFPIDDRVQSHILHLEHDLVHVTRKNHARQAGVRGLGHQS
Experiment [6] deals with sclerosis autoantigen (Scl-70) (UniProt P11387). As to the kind of experiment: AtheNA Multi-Lyte ANA, Ab at 25 ug/ml.
Sequence of sclerosis autoantigen (Scl-70) (P11387 2-765 limits assumed): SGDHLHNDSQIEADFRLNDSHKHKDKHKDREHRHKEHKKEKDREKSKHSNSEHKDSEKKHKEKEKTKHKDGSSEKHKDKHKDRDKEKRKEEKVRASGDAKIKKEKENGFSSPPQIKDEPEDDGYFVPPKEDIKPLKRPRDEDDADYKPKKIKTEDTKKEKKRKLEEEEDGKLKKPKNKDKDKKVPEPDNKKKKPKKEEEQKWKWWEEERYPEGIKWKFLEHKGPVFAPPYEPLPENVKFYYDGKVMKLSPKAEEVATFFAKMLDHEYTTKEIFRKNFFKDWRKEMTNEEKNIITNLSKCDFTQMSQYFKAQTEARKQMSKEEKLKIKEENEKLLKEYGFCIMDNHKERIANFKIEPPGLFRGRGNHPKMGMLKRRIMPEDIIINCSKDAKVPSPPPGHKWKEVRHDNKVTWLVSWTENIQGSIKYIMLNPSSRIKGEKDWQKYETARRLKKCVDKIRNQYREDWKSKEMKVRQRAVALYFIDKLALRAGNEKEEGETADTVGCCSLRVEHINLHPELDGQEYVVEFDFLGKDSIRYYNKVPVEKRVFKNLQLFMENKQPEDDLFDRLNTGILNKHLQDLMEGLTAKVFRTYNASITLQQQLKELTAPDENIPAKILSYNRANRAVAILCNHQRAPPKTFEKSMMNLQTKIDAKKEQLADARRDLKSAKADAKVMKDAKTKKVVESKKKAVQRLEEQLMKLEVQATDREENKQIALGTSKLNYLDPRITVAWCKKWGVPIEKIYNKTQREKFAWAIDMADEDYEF
For experiment [7], the target named is ribonucleoprotein (RNP). As to the kind of experiment: AtheNA Multi-Lyte ANA, Ab at 25 ug/ml.
Experiment [8] concerns the target histidine-tRNA ligase (Jo-1) (UniProt P12081). As to the kind of experiment: AtheNA Multi-Lyte ANA, Ab at 25 ug/ml.
The target of experiment [9] is systemic lupus erythematosus autoantigen SSA. Put plainly: AtheNA Multi-Lyte ANA, Ab at 50 ug/ml.
Experiment [10] concerns the target histones. Put plainly: AtheNA Multi-Lyte ANA, Ab at 50 ug/ml.
For experiment [11], the target named is systemic lupus erythematosus autoantigen SSB (UniProt P05455). Put plainly: AtheNA Multi-Lyte ANA, Ab at 50 ug/ml.
Sequence of systemic lupus erythematosus autoantigen SSB (P05455 whole entry): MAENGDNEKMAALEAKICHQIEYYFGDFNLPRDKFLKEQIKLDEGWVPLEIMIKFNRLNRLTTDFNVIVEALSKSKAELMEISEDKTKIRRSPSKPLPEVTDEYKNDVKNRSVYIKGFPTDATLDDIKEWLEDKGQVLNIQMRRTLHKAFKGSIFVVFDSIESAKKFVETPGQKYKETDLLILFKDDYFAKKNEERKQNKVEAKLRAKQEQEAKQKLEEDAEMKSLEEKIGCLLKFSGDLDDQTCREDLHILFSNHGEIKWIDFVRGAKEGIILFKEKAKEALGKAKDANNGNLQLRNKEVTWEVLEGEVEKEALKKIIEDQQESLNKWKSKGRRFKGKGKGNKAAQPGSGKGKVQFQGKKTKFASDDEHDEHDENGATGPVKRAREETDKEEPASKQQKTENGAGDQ
Experiment [12] has as its target Sm (sphingomyelin). As to the kind of experiment: AtheNA Multi-Lyte ANA, Ab at 50 ug/ml.
In experiment [13] the target is centromere B (CentB) (UniProt P07199). As to the kind of experiment: AtheNA Multi-Lyte ANA, Ab at 50 ug/ml.
The target in experiment [14] is sclerosis autoantigen (Scl-70) (UniProt P11387). As to the kind of experiment: AtheNA Multi-Lyte ANA, Ab at 50 ug/ml.
In experiment [15] the target is ribonucleoprotein (RNP). As to the kind of experiment: AtheNA Multi-Lyte ANA, Ab at 50 ug/ml.
The target in experiment [16] is histidine-tRNA ligase (Jo-1) (UniProt P12081). Put plainly: AtheNA Multi-Lyte ANA, Ab at 50 ug/ml.
Sequence of histidine-tRNA ligase (Jo-1) (P12081 2-509): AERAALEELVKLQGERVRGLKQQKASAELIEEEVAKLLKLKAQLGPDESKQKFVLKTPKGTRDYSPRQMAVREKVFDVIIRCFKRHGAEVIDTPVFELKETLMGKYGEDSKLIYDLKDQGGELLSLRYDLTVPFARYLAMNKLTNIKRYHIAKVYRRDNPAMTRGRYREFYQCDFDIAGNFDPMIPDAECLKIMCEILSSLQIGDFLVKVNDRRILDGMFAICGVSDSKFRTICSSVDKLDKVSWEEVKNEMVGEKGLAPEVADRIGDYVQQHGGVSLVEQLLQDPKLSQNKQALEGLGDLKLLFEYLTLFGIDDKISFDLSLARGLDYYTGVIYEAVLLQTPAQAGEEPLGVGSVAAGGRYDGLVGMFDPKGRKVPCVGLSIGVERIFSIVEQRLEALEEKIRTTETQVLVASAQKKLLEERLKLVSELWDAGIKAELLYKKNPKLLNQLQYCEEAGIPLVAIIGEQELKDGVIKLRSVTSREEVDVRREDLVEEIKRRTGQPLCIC

Regarding “4e10 (Anti HIV, NIH AIDS Reagent Program) (antibody)”, the AtheNA signal stood at 75 in experiment [1]; 15 with histones [2]; 157 in experiment [3]; 7 with Sm (sphingomyelin) [4]; 7 with centromere B (CentB) [5]; 3 in experiment [6]. Moreover, the AtheNA signal in the experiment with ribonucleoprotein (RNP) [7] stood at 13; in experiment [8], 124; in experiment [9], 92; with histones [10], 20; in experiment [11], 184; with Sm (sphingomyelin) [12] it was 11. The AtheNA signal with centromere B (CentB) [13] came to 12; in experiment [14], 3; in the experiment with ribonucleoprotein (RNP) [15] it was 18; in experiment [16] it was 149.
On to “SYNAGIS (anti-RSV monoclonal antibody palivizumab)”, for which the AtheNA signal in experiment [1] amounted to 2; with histones [2] it was 1; in [3], 6; in the experiment with Sm (sphingomyelin) [4], 2; in the experiment with centromere B (CentB) [5], 1; in experiment [6] it was 2. For the same substance, the AtheNA signal was determined as 3 in the experiment with ribonucleoprotein (RNP) [7]; 1 in experiment [8]; 0 in experiment [9]; 2 in the experiment with histones [10]; 5 in experiment [11]; 4 in the experiment with Sm (sphingomyelin) [12]. The AtheNA signal (with centromere B (CentB) [13]; in experiment [14]; in the experiment with ribonucleoprotein (RNP) [15]; in experiment [16]) was 1 throughout.
